Common to all, as to test: cell_activity; E. coli
Conditions in all cases: tags: 6-His

For data set [1], the target named is T1, sN-TALER IV-5 (synthetic).
T1 chain: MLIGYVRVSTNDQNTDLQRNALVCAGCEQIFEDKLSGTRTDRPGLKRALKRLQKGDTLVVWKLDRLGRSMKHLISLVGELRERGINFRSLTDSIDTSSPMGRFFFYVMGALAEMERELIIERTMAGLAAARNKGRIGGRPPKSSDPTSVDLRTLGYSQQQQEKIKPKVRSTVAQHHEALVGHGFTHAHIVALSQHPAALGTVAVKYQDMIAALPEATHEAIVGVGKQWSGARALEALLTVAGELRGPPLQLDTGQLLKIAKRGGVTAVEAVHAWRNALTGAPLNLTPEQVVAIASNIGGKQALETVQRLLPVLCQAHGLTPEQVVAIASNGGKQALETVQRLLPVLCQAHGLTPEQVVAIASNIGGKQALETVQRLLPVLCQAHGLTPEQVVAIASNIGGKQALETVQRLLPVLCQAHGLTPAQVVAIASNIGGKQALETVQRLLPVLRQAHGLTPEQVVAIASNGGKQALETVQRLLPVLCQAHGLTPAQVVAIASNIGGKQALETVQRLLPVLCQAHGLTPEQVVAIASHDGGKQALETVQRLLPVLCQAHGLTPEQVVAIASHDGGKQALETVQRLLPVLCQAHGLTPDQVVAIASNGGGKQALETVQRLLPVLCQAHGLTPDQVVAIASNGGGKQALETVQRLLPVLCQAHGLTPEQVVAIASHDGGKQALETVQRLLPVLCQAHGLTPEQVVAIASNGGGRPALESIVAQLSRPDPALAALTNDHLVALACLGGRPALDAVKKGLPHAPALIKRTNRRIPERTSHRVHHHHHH
Put shortly: (§1)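 DH5alpha cells co-transformed (heat shock or electroporation) with N-TALER expression and reporter plasmids at ~1:1 mass ratio; reporter alone as control. Plated on chloramphenicol/kanamycin/X-gal, grown 37° C. for 18 to 36 hours; recombination scored by colony colour.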

For data set [2], the target named is T2, sN-TALER III-1 (synthetic).
T2 chain: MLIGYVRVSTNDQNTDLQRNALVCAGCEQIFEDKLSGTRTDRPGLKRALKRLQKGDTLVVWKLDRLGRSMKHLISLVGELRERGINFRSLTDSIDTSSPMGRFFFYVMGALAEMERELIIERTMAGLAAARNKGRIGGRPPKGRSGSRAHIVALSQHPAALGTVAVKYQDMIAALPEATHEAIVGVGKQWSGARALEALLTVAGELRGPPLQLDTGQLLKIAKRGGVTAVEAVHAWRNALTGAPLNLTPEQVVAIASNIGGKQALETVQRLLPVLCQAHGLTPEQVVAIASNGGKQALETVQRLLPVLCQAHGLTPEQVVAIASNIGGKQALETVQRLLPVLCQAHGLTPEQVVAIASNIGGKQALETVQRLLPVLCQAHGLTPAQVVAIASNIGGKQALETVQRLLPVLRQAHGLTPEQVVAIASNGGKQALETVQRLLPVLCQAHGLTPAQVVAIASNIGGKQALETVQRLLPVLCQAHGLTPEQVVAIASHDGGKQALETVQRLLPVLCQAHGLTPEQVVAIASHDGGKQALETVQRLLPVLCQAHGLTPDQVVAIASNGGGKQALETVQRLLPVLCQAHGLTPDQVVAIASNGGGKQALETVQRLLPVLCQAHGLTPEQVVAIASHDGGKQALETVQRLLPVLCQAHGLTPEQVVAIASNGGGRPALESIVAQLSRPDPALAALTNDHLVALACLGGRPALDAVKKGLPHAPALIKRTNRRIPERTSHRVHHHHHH
Put shortly: as §1

The target of data set [3] is T3, pN-TALER IV-1-EE3 (synthetic).
T3 chain: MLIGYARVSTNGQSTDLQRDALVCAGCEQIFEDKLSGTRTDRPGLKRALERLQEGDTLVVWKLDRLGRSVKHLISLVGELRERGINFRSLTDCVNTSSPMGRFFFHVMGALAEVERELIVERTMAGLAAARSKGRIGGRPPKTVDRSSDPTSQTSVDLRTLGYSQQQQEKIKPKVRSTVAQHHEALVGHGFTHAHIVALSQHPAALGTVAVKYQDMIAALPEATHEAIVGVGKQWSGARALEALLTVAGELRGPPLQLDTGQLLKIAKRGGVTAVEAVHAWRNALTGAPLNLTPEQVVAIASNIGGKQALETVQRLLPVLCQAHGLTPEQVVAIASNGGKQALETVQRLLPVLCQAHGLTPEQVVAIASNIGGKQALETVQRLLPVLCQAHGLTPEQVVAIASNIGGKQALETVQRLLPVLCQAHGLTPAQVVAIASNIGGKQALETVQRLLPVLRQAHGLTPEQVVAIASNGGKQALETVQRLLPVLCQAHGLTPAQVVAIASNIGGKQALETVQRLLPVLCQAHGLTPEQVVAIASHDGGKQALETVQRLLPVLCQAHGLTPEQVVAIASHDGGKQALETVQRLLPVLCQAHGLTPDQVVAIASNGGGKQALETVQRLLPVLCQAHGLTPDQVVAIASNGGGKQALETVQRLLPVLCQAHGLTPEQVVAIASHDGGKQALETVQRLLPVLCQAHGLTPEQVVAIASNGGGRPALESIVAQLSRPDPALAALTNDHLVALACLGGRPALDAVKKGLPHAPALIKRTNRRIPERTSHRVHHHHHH

B1: Gin20TALE+0 (dsDNA)
DNA 1: AGAAGGTATTTATATCCAAAACCATGGTTTACAGTATAAATACCTTCT
DNA 2: AGAAGGTATTTATACTGTAAACCATGGTTTTGGATATAAATACCTTCT
As for B1, the activity in data set [1] is 4.5 score.

B2: Gin18TALE+0 (dsDNA)
DNA 1: AGAAGGTATTTATACCAAAACCATGGTTTACATATAAATACCTTCT
DNA 2: AGAAGGTATTTATATGTAAACCATGGTTTTGGTATAAATACCTTCT
Regarding B2, the activity in data set [2] came to 4.5 score; in data set [3], 3 score.

(Values after patent publication US20140193915, “COMPOSITIONS AND METHODS FOR CUSTOM SITE-SPECIFIC DNA RECOMBINASES” (Monsanto Technology, LLC, published 2014).)
